Like-named read-outs stand apart in the source and are kept apart here. *1 amine or outer side, *2 acyl side, *3 side chain or, on linkers, in order; H or OH if unused. Where no end group is shown, it is not given here. Side-chain parts run from the residue outwards. The star is where a group is joined. C18 diacid = O=C(O)CCCCCCCCCCCCCCCCC(=O)*; C16 diacid = O=C(O)CCCCCCCCCCCCCCC(=O)*; γGlu = O=C(O)[C@H](CCC(=O)[*:2])N[*:1]; AEEA = NCCOCCOCC(=O)O

Test [1] concerns the target T1, human GIP receptor (human, UniProt P48546 22-466).
T1 sequence (looked up): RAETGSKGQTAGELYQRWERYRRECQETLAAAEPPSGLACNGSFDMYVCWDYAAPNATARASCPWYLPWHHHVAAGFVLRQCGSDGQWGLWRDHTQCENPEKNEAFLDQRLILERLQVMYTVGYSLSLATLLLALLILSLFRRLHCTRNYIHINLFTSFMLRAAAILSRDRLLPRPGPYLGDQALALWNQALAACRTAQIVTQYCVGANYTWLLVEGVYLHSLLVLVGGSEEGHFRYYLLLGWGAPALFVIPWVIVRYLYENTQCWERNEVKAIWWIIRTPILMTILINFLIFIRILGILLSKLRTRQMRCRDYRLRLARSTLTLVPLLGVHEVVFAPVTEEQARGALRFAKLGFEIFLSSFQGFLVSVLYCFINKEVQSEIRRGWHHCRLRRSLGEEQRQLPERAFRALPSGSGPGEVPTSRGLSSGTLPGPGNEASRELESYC
In words: cell-based or functional assay.

For test [2], the target named is T1, human GIP receptor. In words: cell-based or functional assay. The source holds these as a separate data set.

B1: AT438 (peptide)
peptide: SGTFISDYSIAMDKIK([AEEA-AEEA-AEEA-γGlu-C18 diacid])QQDFVNWLLAQKGPSSGAPPPS-OH
modifications: N-terminus assumed
SMILES: CC[C@H](C)[C@H](NC(=O)[C@H](CO)NC(=O)[C@H](Cc1ccc(O)cc1)NC(=O)[C@H](CC(=O)O)NC(=O)[C@H](CO)NC(=O)[C@@H](NC(=O)[C@H](Cc1ccccc1)NC(=O)[C@@H](NC(=O)CNC(=O)[C@@H](N)CO)[C@@H](C)O)[C@@H](C)CC)C(=O)N[C@@H](C)C(=O)N[C@@H](CCSC)C(=O)N[C@@H](CC(=O)O)C(=O)N[C@@H](CCCCN)C(=O)N[C@H](C(=O)N[C@@H](CCCCNC(=O)COCCOCCNC(=O)COCCOCCNC(=O)COCCOCCNC(=O)CC[C@H](NC(=O)CCCCCCCCCCCCCCCCC(=O)O)C(=O)O)C(=O)N[C@@H](CCC(N)=O)C(=O)N[C@@H](CCC(N)=O)C(=O)N[C@@H](CC(=O)O)C(=O)N[C@@H](Cc1ccccc1)C(=O)N[C@H](C(=O)N[C@@H](CC(N)=O)C(=O)N[C@@H](Cc1c[nH]c2ccccc12)C(=O)N[C@@H](CC(C)C)C(=O)N[C@@H](CC(C)C)C(=O)N[C@@H](C)C(=O)N[C@@H](CCC(N)=O)C(=O)N[C@@H](CCCCN)C(=O)NCC(=O)N1CCC[C@H]1C(=O)N[C@@H](CO)C(=O)N[C@@H](CO)C(=O)NCC(=O)N[C@@H](C)C(=O)N1CCC[C@H]1C(=O)N1CCC[C@H]1C(=O)N1CCC[C@H]1C(=O)N[C@@H](CO)C(=O)O)C(C)C)[C@@H](C)CC
On to B1, for which, in the test with human GIP receptor [1], the “cAMP antagonism” value is 54 nM, the “cAMP antagonism % inhib” value was 100% and the cAMP antagonism log is -7.3 log M.

B2: AT471 (peptide)
peptide: EGTFISDYSIAMDKIK(C16 diacid)QQDFVNWLLAQKGPSSG-OH
modifications: N-terminus assumed
SMILES: CC[C@H](C)[C@H](NC(=O)[C@H](CO)NC(=O)[C@H](Cc1ccc(O)cc1)NC(=O)[C@H](CC(=O)O)NC(=O)[C@H](CO)NC(=O)[C@@H](NC(=O)[C@H](Cc1ccccc1)NC(=O)[C@@H](NC(=O)CNC(=O)[C@@H](N)CCC(=O)O)[C@@H](C)O)[C@@H](C)CC)C(=O)N[C@@H](C)C(=O)N[C@@H](CCSC)C(=O)N[C@@H](CC(=O)O)C(=O)N[C@@H](CCCCN)C(=O)N[C@H](C(=O)N[C@@H](CCCCNC(=O)CCCCCCCCCCCCCCC(=O)O)C(=O)N[C@@H](CCC(N)=O)C(=O)N[C@@H](CCC(N)=O)C(=O)N[C@@H](CC(=O)O)C(=O)N[C@@H](Cc1ccccc1)C(=O)N[C@H](C(=O)N[C@@H](CC(N)=O)C(=O)N[C@@H](Cc1c[nH]c2ccccc12)C(=O)N[C@@H](CC(C)C)C(=O)N[C@@H](CC(C)C)C(=O)N[C@@H](C)C(=O)N[C@@H](CCC(N)=O)C(=O)N[C@@H](CCCCN)C(=O)NCC(=O)N1CCC[C@H]1C(=O)N[C@@H](CO)C(=O)N[C@@H](CO)C(=O)NCC(=O)O)C(C)C)[C@@H](C)CC
Consider B2, for which, in the test with human GIP receptor [1], the “cAMP antagonism” value turned out to be 11 nM, the “cAMP antagonism % inhib” value is 100% and the cAMP antagonism log was -7.9 log M. For the same molecule, in the test with human GIP receptor [2], the “cAMP agonism % Emax” value was 0%, the “cAMP antagonism” value worked out at 6.81 nM, the “cAMP antagonism % inhib” value stood at 87% and the “cAMP antagonism pIC50” value turned out to be 8.2.

B3: AT440 (peptide)
peptide: SGTFISDYSIAMDRIK([AEEA-AEEA-AEEA-γGlu-C16 diacid])QQDFVNWLLAQRGPSSGAPPPS-OH
modifications: N-terminus assumed
SMILES: CC[C@H](C)[C@H](NC(=O)[C@H](CO)NC(=O)[C@H](Cc1ccc(O)cc1)NC(=O)[C@H](CC(=O)O)NC(=O)[C@H](CO)NC(=O)[C@@H](NC(=O)[C@H](Cc1ccccc1)NC(=O)[C@@H](NC(=O)CNC(=O)[C@@H](N)CO)[C@@H](C)O)[C@@H](C)CC)C(=O)N[C@@H](C)C(=O)N[C@@H](CCSC)C(=O)N[C@@H](CC(=O)O)C(=O)N[C@@H](CCCNC(=N)N)C(=O)N[C@H](C(=O)N[C@@H](CCCCNC(=O)COCCOCCNC(=O)COCCOCCNC(=O)COCCOCCNC(=O)CC[C@H](NC(=O)CCCCCCCCCCCCCCC(=O)O)C(=O)O)C(=O)N[C@@H](CCC(N)=O)C(=O)N[C@@H](CCC(N)=O)C(=O)N[C@@H](CC(=O)O)C(=O)N[C@@H](Cc1ccccc1)C(=O)N[C@H](C(=O)N[C@@H](CC(N)=O)C(=O)N[C@@H](Cc1c[nH]c2ccccc12)C(=O)N[C@@H](CC(C)C)C(=O)N[C@@H](CC(C)C)C(=O)N[C@@H](C)C(=O)N[C@@H](CCC(N)=O)C(=O)N[C@@H](CCCNC(=N)N)C(=O)NCC(=O)N1CCC[C@H]1C(=O)N[C@@H](CO)C(=O)N[C@@H](CO)C(=O)NCC(=O)N[C@@H](C)C(=O)N1CCC[C@H]1C(=O)N1CCC[C@H]1C(=O)N1CCC[C@H]1C(=O)N[C@@H](CO)C(=O)O)C(C)C)[C@@H](C)CC
With B3, in the test with human GIP receptor [1], the “cAMP antagonism” value is 103 nM, the “cAMP antagonism % inhib” value came out at 100% and the cAMP antagonism log was -7 log M.

B4: AT436 (peptide)
peptide: SGTFISDYSIAMDKIK([AEEA-AEEA-AEEA-γGlu-C16 diacid])QQDFVNWLLAQKGPSSGAPPPS-OH
modifications: N-terminus assumed
SMILES: CC[C@H](C)[C@H](NC(=O)[C@H](CO)NC(=O)[C@H](Cc1ccc(O)cc1)NC(=O)[C@H](CC(=O)O)NC(=O)[C@H](CO)NC(=O)[C@@H](NC(=O)[C@H](Cc1ccccc1)NC(=O)[C@@H](NC(=O)CNC(=O)[C@@H](N)CO)[C@@H](C)O)[C@@H](C)CC)C(=O)N[C@@H](C)C(=O)N[C@@H](CCSC)C(=O)N[C@@H](CC(=O)O)C(=O)N[C@@H](CCCCN)C(=O)N[C@H](C(=O)N[C@@H](CCCCNC(=O)COCCOCCNC(=O)COCCOCCNC(=O)COCCOCCNC(=O)CC[C@H](NC(=O)CCCCCCCCCCCCCCC(=O)O)C(=O)O)C(=O)N[C@@H](CCC(N)=O)C(=O)N[C@@H](CCC(N)=O)C(=O)N[C@@H](CC(=O)O)C(=O)N[C@@H](Cc1ccccc1)C(=O)N[C@H](C(=O)N[C@@H](CC(N)=O)C(=O)N[C@@H](Cc1c[nH]c2ccccc12)C(=O)N[C@@H](CC(C)C)C(=O)N[C@@H](CC(C)C)C(=O)N[C@@H](C)C(=O)N[C@@H](CCC(N)=O)C(=O)N[C@@H](CCCCN)C(=O)NCC(=O)N1CCC[C@H]1C(=O)N[C@@H](CO)C(=O)N[C@@H](CO)C(=O)NCC(=O)N[C@@H](C)C(=O)N1CCC[C@H]1C(=O)N1CCC[C@H]1C(=O)N1CCC[C@H]1C(=O)N[C@@H](CO)C(=O)O)C(C)C)[C@@H](C)CC
B4: in the test with human GIP receptor [1], the “cAMP antagonism” value came to 18 nM, the “cAMP antagonism % inhib” value is 100% and the cAMP antagonism log is -7.7 log M.

B5: AT415 (peptide)
peptide: EGTFISDYSIAMDKIK([AEEA-AEEA-γGlu-C16 diacid])QQDFVNWLLAQKGKKNDW-OH
modifications: N-terminus assumed
SMILES: CC[C@H](C)[C@H](NC(=O)[C@H](CO)NC(=O)[C@H](Cc1ccc(O)cc1)NC(=O)[C@H](CC(=O)O)NC(=O)[C@H](CO)NC(=O)[C@@H](NC(=O)[C@H](Cc1ccccc1)NC(=O)[C@@H](NC(=O)CNC(=O)[C@@H](N)CCC(=O)O)[C@@H](C)O)[C@@H](C)CC)C(=O)N[C@@H](C)C(=O)N[C@@H](CCSC)C(=O)N[C@@H](CC(=O)O)C(=O)N[C@@H](CCCCN)C(=O)N[C@H](C(=O)N[C@@H](CCCCNC(=O)COCCOCCNC(=O)COCCOCCNC(=O)CC[C@H](NC(=O)CCCCCCCCCCCCCCC(=O)O)C(=O)O)C(=O)N[C@@H](CCC(N)=O)C(=O)N[C@@H](CCC(N)=O)C(=O)N[C@@H](CC(=O)O)C(=O)N[C@@H](Cc1ccccc1)C(=O)N[C@H](C(=O)N[C@@H](CC(N)=O)C(=O)N[C@@H](Cc1c[nH]c2ccccc12)C(=O)N[C@@H](CC(C)C)C(=O)N[C@@H](CC(C)C)C(=O)N[C@@H](C)C(=O)N[C@@H](CCC(N)=O)C(=O)N[C@@H](CCCCN)C(=O)NCC(=O)N[C@@H](CCCCN)C(=O)N[C@@H](CCCCN)C(=O)N[C@@H](CC(N)=O)C(=O)N[C@@H](CC(=O)O)C(=O)N[C@@H](Cc1c[nH]c2ccccc12)C(=O)O)C(C)C)[C@@H](C)CC
Turning to B5, in the test with human GIP receptor [1], the “cAMP agonism Emax” value was 4.6, the “cAMP antagonism” value was 55 nM, the “cAMP antagonism % inhib” value stood at 87% and the cAMP antagonism log is -7.3 log M. Also, in the test with human GIP receptor [2], the “cAMP agonism % Emax” value came out at 0%, the “cAMP antagonism” value turned out to be 13.6 nM, the “cAMP antagonism % inhib” value came out at 87% and the “cAMP antagonism pIC50” value came to 7.9.

B6: AT442 (peptide)
peptide: SGTFISDYSIAMDRIK([AEEA-AEEA-AEEA-γGlu-C18 diacid])QQDFVNWLLAQRGPSSGAPPPS-OH
modifications: N-terminus assumed
SMILES: CC[C@H](C)[C@H](NC(=O)[C@H](CO)NC(=O)[C@H](Cc1ccc(O)cc1)NC(=O)[C@H](CC(=O)O)NC(=O)[C@H](CO)NC(=O)[C@@H](NC(=O)[C@H](Cc1ccccc1)NC(=O)[C@@H](NC(=O)CNC(=O)[C@@H](N)CO)[C@@H](C)O)[C@@H](C)CC)C(=O)N[C@@H](C)C(=O)N[C@@H](CCSC)C(=O)N[C@@H](CC(=O)O)C(=O)N[C@@H](CCCNC(=N)N)C(=O)N[C@H](C(=O)N[C@@H](CCCCNC(=O)COCCOCCNC(=O)COCCOCCNC(=O)COCCOCCNC(=O)CC[C@H](NC(=O)CCCCCCCCCCCCCCCCC(=O)O)C(=O)O)C(=O)N[C@@H](CCC(N)=O)C(=O)N[C@@H](CCC(N)=O)C(=O)N[C@@H](CC(=O)O)C(=O)N[C@@H](Cc1ccccc1)C(=O)N[C@H](C(=O)N[C@@H](CC(N)=O)C(=O)N[C@@H](Cc1c[nH]c2ccccc12)C(=O)N[C@@H](CC(C)C)C(=O)N[C@@H](CC(C)C)C(=O)N[C@@H](C)C(=O)N[C@@H](CCC(N)=O)C(=O)N[C@@H](CCCNC(=N)N)C(=O)NCC(=O)N1CCC[C@H]1C(=O)N[C@@H](CO)C(=O)N[C@@H](CO)C(=O)NCC(=O)N[C@@H](C)C(=O)N1CCC[C@H]1C(=O)N1CCC[C@H]1C(=O)N1CCC[C@H]1C(=O)N[C@@H](CO)C(=O)O)C(C)C)[C@@H](C)CC
Regarding B6, in the test with human GIP receptor [1], the “cAMP antagonism” value is 26 nM, the “cAMP antagonism % inhib” value was determined as 77% and the cAMP antagonism log is -7.6 log M.

(Values after patent US20220298218A1 (ANTAG THERAPEUTICS, published 2022).)
